Experiments:
Bcl-2 ΔC22 = target: T1, Bcl-2 ΔC22 (Homo sapiens, UniProt P10415); test: Bcl-2 ΔC22
T1 construct: Human Bcl-2 (Acc. no. NP_000624; residues 1-217); made in house
Description: (§1) Table printed on a drawing sheet, FIGURE 2A
Head of the field: Bcl-2 ΔC22
The patent's description of the figure: FIG. 2 is a graphical representation showing pro-apoptotic BH3-only and pro-survival Bcl-2-like proteins have distinctive interactions. (A) Using competitive binding assays, the IC50 (nM) for the indicated interactions were determined. The results shown are from representative experiments; the variation observed in multiple experiments was less than two-fold (using different chips or protein batches). (B) Relative binding affinities of interactions (tabulated in A) were inversely plotted. The BH3 binding profiles of pro-survival proteins are shown. […] Color reproductions are available from the patentees on request.
(§2) First copying reader's note: The table itself prints no unit; IC50 (nM) is printed only on the axis of panel B of the same figure, which plots the same values.
Where the first naming reader finds the target: head: Bcl-2 ΔC22

Bcl-xL ΔC24 = target: T2, Bcl-xL ΔC24 (Homo sapiens, UniProt Q07817); test: Bcl-xL ΔC24
T2 construct: Human Bcl-xL (Acc. no. NP_612815; residues 1-209); GST (N, cleaved yes); made in house
Description: as §1
Head of the field: Bcl-xL ΔC24
(§3) The patent's description of the figure: FIG. 2 is a graphical representation showing pro-apoptotic BH3-only and pro-survival Bcl-2-like proteins have distinctive interactions. (A) Using competitive binding assays, the IC50 (nM) for the indicated interactions were determined. The results shown are from representative experiments; the variation observed in multiple experiments was less than two-fold (using different chips or protein batches). (B) Relative binding affinities of interactions (tabulated in A) were inversely plotted. The BH3 binding profiles of pro-survival proteins are shown. In (C), the sequences of human Bcl-2 (residues 93-202), human Bcl-xL (86-195), human Bcl-w (42-151), mouse Mcl-1 (190-300) and mouse A1 (33-148) that form their BH3 binding grooves (α-helices 2 to 8; Hinds et al., EMBO J 22:1497-1507, 2003) were compared and presented as a phylogenetic tree. Color reproductions are available from the patentees on request.
as §2
Where the first naming reader finds the target: head: Bcl-xL ΔC24

Bcl-w ΔC29 = target: T3, Bcl-w ΔC29 (Homo sapiens, UniProt Q92843, A128E/C29S); test: Bcl-w ΔC29
T3 construct: human Bcl-w (Acc. no. NP_004041; residues 1-164; C29S A128E); made in house
Description: as §1, §3, §2

A1 ΔC20 = target: T4, A1 ΔC20 (Mus musculus, UniProt Q07440); test: A1 ΔC20
T4 construct: mouse A1 (Acc. no. NP_033872; residues 1-152); GST (N, cleaved yes); made in house
Description: as §1
Head of the field: A1 ΔC20
as §3, §2
Where the first naming reader finds the target: head: A1 ΔC20

[1] = test system: mouse embryonic fibroblasts (MEFs); test: Killing of MEFs after retroviral expression, viability 24 hours after infection; assay type: cell-based; settings: retroviral expression, 24 hours after infection
Description: FIG. 7 is a graphical representation showing that BH3-only proteins that bind selective targets have weak killing activity. (A) The affinities of BH3-only peptides for pro-survival proteins (tabulated in FIG. 3A) were inversely plotted to facilitate comparison of the patterns of BH3 binding. […] Immortalized 3T9 MEFs were infected with retroviruses expressing only GFP (control), or one of the BH3-only proteins and GFP. The viability of the infected (GFP^+ve) cells was determined by PI exclusion 24 hours after infection. The histograms represent means±1SD of at least 3 experiments. […] The filter was probed with a rat monoclonal anti-FLAG antibody. *Degradation product of Mcl-1. […] Viability of MEFs infected with retroviruses encoding the indicated proteins (GFP^+ve) was analyzed 24 hours after infection. The histograms represent means±1SD of at least 3 experiments. (E) Long-term survival of MEFs infected with BH3 expressing retroviruses. One hundred retrovirally-infected cells were plated and the absolute number of GFP^+ve colonies formed after 6 days scored. […] The data represent the average number of GFP^+ve colonies formed±1SD from at least 3 experiments. To assess the biological relevance of the selective binding, retroviral delivery was used to compare the ability of different BH3-only proteins to kill wild-type mouse embryonic fibroblasts (MEFs). To monitor expression of the introduced gene, a vector (pMIG) in which its expression is coupled via an internal ribosomal entry site (IRES) to that of green fluorescent protein (GFP) was used (Van Parijs et al., Immunity 11:281-288, 1999). The cells were efficiently infected (>90%) and the introduced BH3-only proteins were comparably expressed. Viability of the infected (GFP^+ve) cells was scored 24 hours after infection (FIGS. 7A, 7B) and in long-term colony assays (FIG. 7E). […] Thus, the neutralization of Mcl-1 by Noxa should be complemented by co-expression of a BadBH3 to neutralize Bcl-2 and Bcl-xL in MEFs (FIG. 8A).

FLAG-tagged Bcl-xL = target: T5, FLAG-tagged Bcl-xL (Homo sapiens, UniProt Q07817); test: Co-immunoprecipitation in transfected 293T cells; assay type: binding; settings: tagged full-length proteins
T5 construct: expressed in transfected cells; host or cells: HEK293T
From the text: (§4) Equivalent ^35S-labeled lysates harvested from 293T cells were immunoprecipitated with antibodies to the HA, FLAG (FL) or control (C) tags.
(§5) The maintenance, transfection and metabolic labeling of the human embryonic kidney (HEK) 293T cells with ^35S-methionine/cysteine (NEN) as well as co-immunoprecipitation have been described (Huang et al., Supra; Moriishi et al., Proc Natl Acad Sci USA 96:9683-9688, 1999; O'Conner et al., Supra). Briefly, equivalent TCA-precipitable lysates were immunoprecipiated using the mouse monoclonal antibodies to HA (HA.11; CRP), FLAG (M2; Sigma) and control Glu-Glu (CRP) tags. The proteins were resolved by SDS:PAGE, transferred onto nitrocellulose membranes and detected by fluorography (Amplify; Amersham Biosciences).
(§6) To verify the in vitro findings, interactions of selected pairs of the full-length N-terminally tagged proteins were investigated in mammalian cells by co-immunoprecipitation. […] The cells were metabolically labeled with ^35S-methionine/cysteine to permit semi-quantitative assessment of any interaction between co-associating radiolabeled proteins.
(§7) To verify the in vitro findings, selected pairs of the full-length N-terminally tagged proteins associated in mammalian cells were investigated by co-immunoprecipitation. […] The cells were metabolically labeled with ^35S-methionine/cysteine to permit semi-quantitative assessment of any interaction between the labeled proteins or interaction was gauged by the more sensitive western blotting.

FLAG-tagged Mcl-1 = target: T6, FLAG-tagged Mcl-1 (Mus musculus, UniProt P97287); test: Co-immunoprecipitation in transfected 293T cells; assay type: binding; settings: tagged full-length proteins
T6 construct: expressed in transfected cells; host or cells: HEK293T
From the text: as §4, §5, §6, §7

Mcl-1 ΔN151 ΔC23 = target: T7, Mcl-1 ΔN151 ΔC23 (Mus musculus, UniProt P97287); test: Mcl-1 ΔN151 ΔC23
T7 construct: mouse Mcl-1 (Acc. no. NP_031588; residues 152-308); GST (N, cleaved yes); made in house
Description: as §1
Head of the field: Mcl-1 ΔN151 ΔC23
as §3, §2
Where the first naming reader finds the target: head: Mcl-1 ΔN151 ΔC23

[2] = test system: mouse embryonic fibroblasts (MEFs); test: Long-term colony assay of retrovirally infected MEFs; assay type: cell-based; settings: colonies after 6 days
Description: FIG. 7 is a graphical representation showing that BH3-only proteins that bind selective targets have weak killing activity. (A) The affinities of BH3-only peptides for pro-survival proteins (tabulated in FIG. 3A) were inversely plotted to facilitate comparison of the patterns of BH3 binding. […] Immortalized 3T9 MEFs were infected with retroviruses expressing only GFP (control), or one of the BH3-only proteins and GFP. The viability of the infected (GFP^+ve) cells was determined by PI exclusion 24 hours after infection. The histograms represent means±1SD of at least 3 experiments. […] The filter was probed with a rat monoclonal anti-FLAG antibody. *Degradation product of Mcl-1. […] Viability of MEFs infected with retroviruses encoding the indicated proteins (GFP^+ve) was analyzed 24 hours after infection. The histograms represent means±1SD of at least 3 experiments. (E) Long-term survival of MEFs infected with BH3 expressing retroviruses. One hundred retrovirally-infected cells were plated and the absolute number of GFP^+ve colonies formed after 6 days scored. […] The data represent the average number of GFP^+ve colonies formed±1SD from at least 3 experiments. […] Viability of the infected (GFP^+ve) cells was scored 24 hours after infection (FIGS. 7A, 7B) and in long-term colony assays (FIG. 7E).

T4 sequence (Q07440 1-152, stated change not applied): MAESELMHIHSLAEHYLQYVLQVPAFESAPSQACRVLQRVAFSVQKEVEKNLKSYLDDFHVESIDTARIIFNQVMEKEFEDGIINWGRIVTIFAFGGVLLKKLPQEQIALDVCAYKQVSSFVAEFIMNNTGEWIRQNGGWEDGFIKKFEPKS
T6 sequence (P97287 whole entry): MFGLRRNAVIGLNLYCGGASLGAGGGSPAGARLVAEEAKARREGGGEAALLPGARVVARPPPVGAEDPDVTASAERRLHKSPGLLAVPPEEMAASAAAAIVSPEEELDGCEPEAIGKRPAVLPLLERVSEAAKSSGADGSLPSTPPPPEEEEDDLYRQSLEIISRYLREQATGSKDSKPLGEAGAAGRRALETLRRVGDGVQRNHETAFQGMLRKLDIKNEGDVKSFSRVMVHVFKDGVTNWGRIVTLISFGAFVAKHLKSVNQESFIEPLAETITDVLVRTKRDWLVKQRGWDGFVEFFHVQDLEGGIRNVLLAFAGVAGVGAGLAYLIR
T5 sequence (Q07817 whole entry): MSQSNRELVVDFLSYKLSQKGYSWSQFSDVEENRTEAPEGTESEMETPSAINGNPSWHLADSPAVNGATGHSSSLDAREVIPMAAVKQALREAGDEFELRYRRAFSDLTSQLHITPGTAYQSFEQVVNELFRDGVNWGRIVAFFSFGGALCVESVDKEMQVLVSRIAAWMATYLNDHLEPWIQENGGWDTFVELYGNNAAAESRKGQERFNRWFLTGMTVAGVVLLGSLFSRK
T2 sequence (Q07817 1-209, stated change not applied): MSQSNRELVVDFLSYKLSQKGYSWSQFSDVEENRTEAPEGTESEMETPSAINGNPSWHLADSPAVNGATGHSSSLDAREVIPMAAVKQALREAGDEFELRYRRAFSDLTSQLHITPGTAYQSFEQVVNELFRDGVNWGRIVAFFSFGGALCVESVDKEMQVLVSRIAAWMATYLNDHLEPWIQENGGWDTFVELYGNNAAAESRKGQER
T7 sequence (P97287 152-308, stated change not applied): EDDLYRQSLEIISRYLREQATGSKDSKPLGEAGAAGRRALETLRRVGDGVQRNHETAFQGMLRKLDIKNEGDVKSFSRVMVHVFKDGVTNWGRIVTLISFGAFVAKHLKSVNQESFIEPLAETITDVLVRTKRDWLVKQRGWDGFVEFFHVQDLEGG
T1 sequence (P10415 1-217, stated change not applied): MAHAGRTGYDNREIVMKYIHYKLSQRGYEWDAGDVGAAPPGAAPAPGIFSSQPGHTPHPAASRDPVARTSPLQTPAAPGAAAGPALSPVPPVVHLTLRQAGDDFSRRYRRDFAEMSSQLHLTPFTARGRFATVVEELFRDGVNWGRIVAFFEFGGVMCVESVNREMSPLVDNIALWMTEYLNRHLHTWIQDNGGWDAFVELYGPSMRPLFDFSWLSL
T3 sequence (Q92843 1-164 C29S/A128E): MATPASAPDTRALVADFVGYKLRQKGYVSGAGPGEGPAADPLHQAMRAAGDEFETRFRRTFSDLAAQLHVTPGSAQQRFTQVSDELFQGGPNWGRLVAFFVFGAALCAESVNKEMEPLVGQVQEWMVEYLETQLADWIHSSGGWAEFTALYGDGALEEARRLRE

Substance	IC50 (A1 ΔC20)	killing of MEFs [1]	interaction with Mcl-1 by co-immunoprecipitation (FLAG-tagged Mcl-1)	also measured
Hrk: BH3-only protein Hrk expressed from retrovirus in MEFs	46 nM	–	–	IC50 (Bcl-2 ΔC22): 320 nM; IC50 (Bcl-xL ΔC24): 3.7 nM; IC50 (Bcl-w ΔC29): 49 nM
Noxa m3: Noxa BH3 with K35E and F32I expressed in cells (Bims NoxaBH3 m3 in FIG. 9D) (PAELEVECATQLRRIGDELNFRQKLL)	–	more potent killer than wild-type Noxa	binds	interaction with Bcl-xL by co-immunoprecipitation (FLAG-tagged Bcl-xL): bound
Puma: full-length human BH3-only protein Puma expressed in cells [listing 1 of 2 here]	5.7 nM	–	–	IC50 (Mcl-1 ΔN151 ΔC23): 5 nM
Puma: full-length human BH3-only protein Puma expressed in cells [listing 2 of 2 here]	–	soon died	well	long-term survival, GFP+ve colonies [2]: failed to generate colonies

Source: US20080027145A1, “Therapeutic Molecules and Methods for Generating and/or Selecting Same” (priority 2004, published 2008)
